# Source: patent publication US20250327050
# Substitutions are numbered along the chain they refer to.
# Legend:
# [1] = test system: T1, MBP-ZC3H14 full-length S475A mutant
# T1 sequence: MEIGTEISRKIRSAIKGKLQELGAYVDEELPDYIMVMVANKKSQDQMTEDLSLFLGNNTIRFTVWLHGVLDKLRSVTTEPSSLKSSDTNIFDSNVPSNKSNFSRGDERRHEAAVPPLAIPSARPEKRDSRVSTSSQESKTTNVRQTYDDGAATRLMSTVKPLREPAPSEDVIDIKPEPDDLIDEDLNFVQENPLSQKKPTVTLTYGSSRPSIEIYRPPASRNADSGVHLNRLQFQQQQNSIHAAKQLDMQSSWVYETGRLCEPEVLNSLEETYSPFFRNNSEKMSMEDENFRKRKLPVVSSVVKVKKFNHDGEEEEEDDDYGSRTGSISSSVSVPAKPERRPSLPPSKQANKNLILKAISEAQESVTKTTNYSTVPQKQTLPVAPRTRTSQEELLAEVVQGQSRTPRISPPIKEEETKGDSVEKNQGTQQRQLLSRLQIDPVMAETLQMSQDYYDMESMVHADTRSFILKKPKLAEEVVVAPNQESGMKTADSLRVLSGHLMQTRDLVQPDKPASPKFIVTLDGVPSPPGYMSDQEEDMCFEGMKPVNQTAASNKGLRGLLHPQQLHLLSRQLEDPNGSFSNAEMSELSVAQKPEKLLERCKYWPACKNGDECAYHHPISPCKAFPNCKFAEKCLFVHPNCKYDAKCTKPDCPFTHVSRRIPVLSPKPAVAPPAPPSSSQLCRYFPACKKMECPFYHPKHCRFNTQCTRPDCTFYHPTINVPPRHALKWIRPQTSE
# [2] = test system: T2, MBP-ZC3H14 full-length wildtype (residues 1-736)
# T2 sequence: T1 sequence with A475S
substance,measurement,setting,value
"Cdk13 (694-1039) / Cyclin T1 (1-272, T149E) kinase complex",anti-thiophosphorylation immunoblot,[1],CDK13 directly phosphorylates ZC3H14 WT but not ZC3H14 S475A
same,in vitro kinase assay P32 counts per minute minus time zero,[1],CDK13 directly phosphorylates ZC3H14 WT but not ZC3H14 S475A
same,anti-thiophosphorylation immunoblot,[2],CDK13 directly phosphorylates ZC3H14 WT but not ZC3H14 S475A
same,in vitro kinase assay P32 counts per minute minus time zero,[2],CDK13 directly phosphorylates ZC3H14 WT but not ZC3H14 S475A
